Measurements: article PMC11695723

Assays:
[1] = biological target: Origin Recognition Complex (ORC); test: pre-RC assembly on DNA beads, silver-stained gel band quantification; conditions: ATP, low salt wash; read off a plot
[2] = biological target: Origin Recognition Complex (ORC) (UniProt P54784); test: pull-down; pre-RC assay as a2 but with 3 mM ATP, WT Cdc6, low salt wash

Substance	response [1]	complex formation compared to WT [2] [%]
MCM2-7 (wild type) mutant Mcm5:E710R; Mcm5:E717R; Mcm5:E736R [S. cerevisiae] / Origin Recognition Complex (ORC) [not stated] chain 4 E710R, chain 4 E717R, chain 4 E736R	0.5	–
MCM2-7 (wild type) mutant Mcm5:K757D; Mcm5:R764E; Mcm5:R772E [S. cerevisiae] / Origin Recognition Complex (ORC) [not stated] chain 4 K757D, chain 4 R764E, chain 4 R772E	0.25	–
MCM2-7 (wild type) mutant Mcm5:R721E; Mcm5:R735E [S. cerevisiae] / Origin Recognition Complex (ORC) [not stated] chain 4 R721E, chain 4 R735E	0.28	–
MCM2-7-ΔC2, P29469 1-847; P24279 1-971; P30665 1-933; P29496 1-775; P53091 1-1017; P38132 1-845	–	65
